The target of test [1] is T1, Human CD45RB (format not stated) (human, UniProt P08575-9 26-1192, limits assumed).
T1 construct: also called RB exon of CD45
T1 sequence (looked up): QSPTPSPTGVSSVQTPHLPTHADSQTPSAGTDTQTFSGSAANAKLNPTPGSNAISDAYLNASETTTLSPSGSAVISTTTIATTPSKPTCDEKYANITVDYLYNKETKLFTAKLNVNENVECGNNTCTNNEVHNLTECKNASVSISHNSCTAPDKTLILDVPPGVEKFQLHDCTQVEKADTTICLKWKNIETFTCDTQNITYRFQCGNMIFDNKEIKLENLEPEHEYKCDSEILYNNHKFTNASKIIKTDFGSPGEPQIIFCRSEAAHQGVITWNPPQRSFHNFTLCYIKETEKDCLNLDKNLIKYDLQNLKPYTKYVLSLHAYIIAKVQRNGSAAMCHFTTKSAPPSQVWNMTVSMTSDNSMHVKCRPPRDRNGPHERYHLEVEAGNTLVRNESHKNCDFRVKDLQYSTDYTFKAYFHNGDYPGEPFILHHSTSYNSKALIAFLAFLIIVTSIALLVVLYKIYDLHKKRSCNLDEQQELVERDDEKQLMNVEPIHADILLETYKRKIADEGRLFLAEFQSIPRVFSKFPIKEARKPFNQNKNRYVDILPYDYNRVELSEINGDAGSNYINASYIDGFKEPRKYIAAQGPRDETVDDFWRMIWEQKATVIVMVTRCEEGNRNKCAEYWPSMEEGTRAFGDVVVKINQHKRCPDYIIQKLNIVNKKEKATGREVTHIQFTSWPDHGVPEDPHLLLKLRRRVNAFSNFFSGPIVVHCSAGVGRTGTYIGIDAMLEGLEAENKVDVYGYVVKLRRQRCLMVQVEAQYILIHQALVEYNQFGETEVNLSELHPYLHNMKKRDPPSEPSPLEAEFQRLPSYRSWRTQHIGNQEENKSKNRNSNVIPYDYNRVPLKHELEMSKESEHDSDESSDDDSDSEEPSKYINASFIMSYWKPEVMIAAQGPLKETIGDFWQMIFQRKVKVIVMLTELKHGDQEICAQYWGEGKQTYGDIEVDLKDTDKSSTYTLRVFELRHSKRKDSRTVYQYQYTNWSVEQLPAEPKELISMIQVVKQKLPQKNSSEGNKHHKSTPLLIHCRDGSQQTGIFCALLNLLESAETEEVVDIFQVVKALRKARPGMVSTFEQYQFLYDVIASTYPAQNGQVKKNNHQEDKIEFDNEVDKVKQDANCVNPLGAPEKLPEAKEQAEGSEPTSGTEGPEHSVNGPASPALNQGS
Put plainly: screening of harvest 2.

In test [2] the target is T2, Human 46 mer peptide (RB exon of human CD45) (human).
T2 construct: synthetic peptide; also called CD45RB 46 mer
T2 peptide: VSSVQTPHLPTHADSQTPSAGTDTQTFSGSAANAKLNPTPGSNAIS
Put plainly: recombinant antibody on peptide.

The target in a further test is T3, Human 18 mer peptide (human).
T3 construct: synthetic peptide from the RB exon
T3 peptide: VSSVQTPHLPTHADSQTPC
Put plainly: recombinant antibody on peptide.

The next test deals with T4, Human 20.1 peptide (human).
T4 construct: synthetic peptide from the RB exon
T4 peptide: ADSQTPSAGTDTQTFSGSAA
Put plainly: recombinant antibody on peptide.

A further test concerns the target T5, Human 20.2 peptide (human).
T5 construct: synthetic peptide from the RB exon
T5 peptide: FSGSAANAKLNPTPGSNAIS
Put plainly: recombinant antibody on peptide.

The target of test [3] is T6, chimeric CD45RB (full length human CD45RB with the macaque RB exon) transiently expressed in CHO cells (human; macaque, UniProt P08575-9 26-33; P08575-9 81-1192).
T6 construct: whole chimeric protein on CHO cells; also called Macaque CD45RB CHO
T6 sequence: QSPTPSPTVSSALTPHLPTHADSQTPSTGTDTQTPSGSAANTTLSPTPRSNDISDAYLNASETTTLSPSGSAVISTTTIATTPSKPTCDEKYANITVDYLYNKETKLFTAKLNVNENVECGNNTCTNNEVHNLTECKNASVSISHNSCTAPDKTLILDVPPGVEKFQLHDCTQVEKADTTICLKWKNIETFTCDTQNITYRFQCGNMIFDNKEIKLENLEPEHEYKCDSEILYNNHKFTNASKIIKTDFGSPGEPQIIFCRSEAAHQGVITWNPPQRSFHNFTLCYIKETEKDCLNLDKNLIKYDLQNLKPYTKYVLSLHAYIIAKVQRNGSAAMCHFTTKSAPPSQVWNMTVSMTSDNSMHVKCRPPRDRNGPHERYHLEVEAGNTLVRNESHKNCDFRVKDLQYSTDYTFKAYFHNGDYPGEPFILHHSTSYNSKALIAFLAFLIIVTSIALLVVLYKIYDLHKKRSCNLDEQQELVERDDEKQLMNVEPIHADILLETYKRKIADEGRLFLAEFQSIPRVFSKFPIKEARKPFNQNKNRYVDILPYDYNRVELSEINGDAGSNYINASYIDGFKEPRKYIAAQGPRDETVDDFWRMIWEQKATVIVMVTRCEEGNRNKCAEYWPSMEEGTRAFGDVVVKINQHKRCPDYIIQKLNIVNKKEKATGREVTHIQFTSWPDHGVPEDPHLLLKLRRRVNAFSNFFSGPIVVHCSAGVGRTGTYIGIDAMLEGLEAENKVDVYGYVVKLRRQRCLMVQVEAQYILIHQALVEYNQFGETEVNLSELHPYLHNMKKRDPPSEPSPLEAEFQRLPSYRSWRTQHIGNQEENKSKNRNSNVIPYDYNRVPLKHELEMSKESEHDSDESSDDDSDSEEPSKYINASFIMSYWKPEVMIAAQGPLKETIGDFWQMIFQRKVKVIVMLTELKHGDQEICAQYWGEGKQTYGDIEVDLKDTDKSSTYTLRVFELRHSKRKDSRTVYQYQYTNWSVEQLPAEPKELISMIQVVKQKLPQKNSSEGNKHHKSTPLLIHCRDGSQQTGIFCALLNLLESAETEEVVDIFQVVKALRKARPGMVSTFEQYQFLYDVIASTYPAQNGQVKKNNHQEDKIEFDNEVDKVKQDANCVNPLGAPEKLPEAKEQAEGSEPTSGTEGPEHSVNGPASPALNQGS
Put plainly: transiently transfected CHO cells.

B1: AB-CD45RB-XG2-009 (antibody, human IgG2, V domains shown)
VH: QVQLVESGGGVVQPGRSLRLSCAASGFTFSNYGMHWVRQAPGKGLEWVAVIWYDGSKRFYAGSVKGRFTISRDNSKNTLYLQMNSLRAEDTAVYYCARTTDYWGQGTMVTVSS
VL: DIVMTQTPLSLSVTPGQPASISCKSSQSLLHSDGKTYLYWYLQKPGQPPQLLIYEVSNRFSGVPDRFSGSGSGTDFTLKISRVEAEDVGLYWCMQSIQLPITFGQGTRLEIK
notes: recombinant human IgG2 kappa; also called sc009; 16C9 (sc009)
For the molecule B1, the binding result in test [1] was “binds”; in test [2], “binds”; with Human 18 mer peptide, “no binding”; in the test with Human 20.1 peptide, “no binding”; in the test with Human 20.2 peptide it was “no binding”; in test [3], “no binding”.

The values above are taken from patent publication US20030232009A1 (Amgen, published 2003).
